The Kd is a measure of binding affinity in units of concentration. A word on the EC50: it is the concentration that produces a half-maximal response.

The results in this text go back to patent US8440629B2.

Residue numbers refer to the chain shown, from its start. Names and notes keep the numbering of the source. Where two headings read alike, the source gives them in different places. Positions of bridges follow the written chain, without caps; N, C: chain ends. No end group written: not given here.

The target of assay [1] is LRP1 CR3-5 (human). The assay can be described thus: solid-phase binding assay, immobilised CR protein, anti-RAP detection.
For assay [2], the target named is LRP2 CR89 (human) (UniProt P98164). Described as above.
The target in a further assay is LRP2 CR3536 (human) (UniProt P98164). The description is as above.
The target in a further assay is LRP2 CR34-36 (human) (UniProt P98164). The description is as above.
Assay [3] addresses LRP1 CR3-5 (human). Described as above. This is another data set of the same source.
Assay [4] concerns the target MAT CR23 (human). Described as above.
For assay [5], the target named is LRP2 CR89 (human) (UniProt P98164). Described as above. The source holds these as a separate data set.
A further assay has as its target LRP2 CR89 R1088D (human) (UniProt P98164). The assay can be described thus: solid-phase binding assay, immobilised mutant CR protein.
The target in assay [6] is MAT CR23 (human). Description: solid-phase binding assay (FIG. 9); target not given, MatRAP1 was selected on MAT CR23.
Chain of MAT CR23 (human) (Q9Y5Y6 whole entry): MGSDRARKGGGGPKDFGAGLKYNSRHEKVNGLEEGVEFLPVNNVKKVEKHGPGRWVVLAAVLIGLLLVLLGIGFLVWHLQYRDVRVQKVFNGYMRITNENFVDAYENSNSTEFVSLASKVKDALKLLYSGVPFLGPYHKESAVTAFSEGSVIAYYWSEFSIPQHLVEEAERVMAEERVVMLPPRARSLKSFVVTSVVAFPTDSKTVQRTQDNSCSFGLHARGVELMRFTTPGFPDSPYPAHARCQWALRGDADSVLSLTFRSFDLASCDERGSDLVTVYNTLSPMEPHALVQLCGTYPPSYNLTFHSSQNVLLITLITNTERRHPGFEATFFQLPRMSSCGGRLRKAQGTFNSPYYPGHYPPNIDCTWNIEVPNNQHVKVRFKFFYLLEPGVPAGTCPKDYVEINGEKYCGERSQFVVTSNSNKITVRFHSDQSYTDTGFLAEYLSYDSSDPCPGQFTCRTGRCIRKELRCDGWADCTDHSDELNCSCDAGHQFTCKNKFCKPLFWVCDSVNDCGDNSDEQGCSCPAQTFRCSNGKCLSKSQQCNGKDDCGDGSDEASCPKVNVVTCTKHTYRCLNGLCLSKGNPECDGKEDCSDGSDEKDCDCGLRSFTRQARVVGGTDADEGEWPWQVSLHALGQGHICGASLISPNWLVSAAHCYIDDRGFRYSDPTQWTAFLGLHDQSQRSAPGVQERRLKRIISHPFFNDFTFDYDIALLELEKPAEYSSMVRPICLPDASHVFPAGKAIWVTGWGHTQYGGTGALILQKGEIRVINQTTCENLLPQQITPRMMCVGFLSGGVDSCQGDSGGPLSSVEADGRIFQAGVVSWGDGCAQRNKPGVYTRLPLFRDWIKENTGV
In assay [7] the target is recombinant human LRP1 ligand binding cluster II (human). Description: solid-phase binding assay, immobilised receptor.
In assay [8] the target is LRP1 CR3-5 (human). Description: phage panning of a RAP library randomised at 256 and 270 on immobilised LRP1 CR3-5.
A further assay addresses 8D6 CR12 (human). Description: solid-phase binding assay (FIG. 10).
Assay [9] deals with recombinant human LRP1 ligand binding cluster II (human). The assay can be described thus: competition ELISA on immobilised LRP1 cluster II; competitor ligand RAP d3 (2 nM).
Assay [10] shares this target. The assay can be described thus: competition ELISA, inhibitor pre-incubated with immobilised LRP1 cluster II before washing; competitor ligand RAP d3. In general terms: An ELISA detects its analyte on a solid surface through an enzyme-linked reagent.
For assay [11] the target is unchanged. Description: solid-phase binding assay, immobilised receptor, streptavidin-HRP detection, EDTA-corrected.

B1: RAP d3 (ligand)
chain: LDRLRRVSHQGYSTEAEFEEPRVIDLWDLAQSANLTDKELEAFREELKHFEAKIEKHNHYQKQLEIAHEKLRHAESVGDGERVSRSREKHALLEGRTKELGYTVKKHLQDLSGRISRAR
As for B1, the Kd with LRP1 CR3-5 (human) [1] was 16 nM; in the assay with LRP2 CR89 (human) [2], over 300 nM; with LRP1 CR3-5 (human) [3], 11 nM. Further, the binding as percent of that for LRP1 CR3-5 with LRP2 CR3536 (human), with LRP2 CR34-36 (human) and with MAT CR23 (human) [4] was under 5% in each case.

B2: MegaRAP1 d3 E270K (ligand)
chain: B1 chain with S13T, E17K, H49Y, E51K, K56A
As to B2, the Kd with LRP2 CR89 (human) [5] was determined as 8 nM; in the assay with LRP1 CR3-5 (human) [1], 142 nM.

B3: MegaRAP1 d3 (ligand)
chain: B1 chain with S13T, E17K, H49Y, E51K, K56A, K70E
In the assay with LRP2 CR89 R1088D (human), B3 came in with a fold loss of affinity relative to LRP2 CR89 of 2 fold. For the same molecule, the Kd with LRP2 CR89 (human) [5] is 38 nM.

B4: RAP d3 E251K, K256A, K270E (ligand)
chain: B1 chain with E51K, K56A, K70E
Molecule B4 gave a Kd in the assay with LRP2 CR89 (human) [2] of 114 nM.

B5: MegaRAP1 d3 double revertant A256K, E270K (ligand)
chain: B1 chain with S13T, E17K, H49Y, E51K
Take B5: in the assay with LRP2 CR89 (human) [5], the fold loss of affinity against the E270K single-site revertant came to 2 fold. Further, the fold improvement in affinity against the E270K single-site revertant with LRP1 CR3-5 (human) [1] was 30 fold.

B6: MegaRAP1 d3 double revertant K251E, E270K (ligand)
chain: B1 chain with S13T, E17K, H49Y, K56A
Molecule B6 returned a fold difference in affinity against the single-site E270K revertant in the assay with LRP2 CR89 (human) [5] of 20 fold.

B7: MatRAP1 N-42 (ligand)
chain: FREELKHFGAKIERHNHYQKQLEIAHEWLRHAESVGDGERVSRSREKHALLEGRTKELGYTVKKHLQDLSGRISRAR
The molecule B7 displayed a fold increase in affinity over the full-length d3 variant with MAT CR23 (human) [6] of 3 fold.

B8: MatRAP1 N-42 without the C-terminal linker and affinity tag (ligand)
chain: B7 chain
In the assay with MAT CR23 (human) [6], B8 registered a fold increase in binding affinity over MatRAP1 N-42 of 2 fold and a fold increase in binding affinity over full-length MatRAP1 d3 of 6 fold.

B9: mRAP-14c (peptide)
peptide: CEAKIEKHNHYQKQLEIAHEKLRHAESVGDGERVSRSREKHALLEGRTKELGYTVKKHGC
modifications: disulfide 1-60
B9: the Kd in [7] turned out to be 21 nM.

B10: mRAP-8c (peptide)
peptide: CGKHFEAKIEKHNHYQKQLEIAHEKLRHAESVGDGERVSRSREKHALLEGRTKELGYTVKKHLQDGC
modifications: disulfide 1-67
Take B10: the Kd in assay [7] lay in the range of 4 to 6 nM.

B11: wild-type RAP displayed on M13 phage (ligand)
chain: YSREKNQPKPSPKRESGEEFRMEKLNQLWEKAQRLHLPPVRLAELHADLKIQERDELAWKKLKLDGLDEDGEKEARLIRNLNVILAKYGLDGKKDARQVTSNSLSGTQEDGLDDPRLEKLWHKAKTSGKFSGEELDKLWREFLHHKEKVHEYNVLLETLSRTEEIHENVISPSDLSDIKGSVLHSRHTELKEKLRSINQGLDRLRRVSHQGYSTEAEFEEPRVIDLWDLAQSANLTDKELEAFREELKHFEAKIEKHNHYQKQLEIAHEKLRHAESVGDGERVSRSREKHALLEGRTKELGYTVKKHLQDLSGRISRARAEAETG
Take B11: the fold enrichment after one round of panning in the assay with LRP1 CR3-5 (human) [8] is 7 fold.

B12: MatRAP1 truncated variant, amino acids 243-313 (ligand)
chain: FREELKHFGAKIERHNHYQKQLEIAHEWLRHAESVGDGERVSRSREKHALLEGRTKELGYTVKKHLQDLSG
In the assay with MAT CR23 (human) [6], B12 displayed a fold increase in binding affinity over MatRAP1 N-42 of 4 fold and a fold increase in binding affinity over full-length MatRAP1 d3 of 12 fold.

B13: truncated 320RAP1, amino acids 243-313 (ligand)
chain: B12 chain with G9E, R14S, W28S, L29M, D37Y, V41M, K63T, K64M
In the assay with 8D6 CR12 (human), B13 displayed a fold improvement in affinity over the full-length variant of 3.5 fold.

B14: Heptide (peptide)
peptide: CGKHFEAKIEKHNHYQKQLEIAHEKLRHAESVGDAERVSRSREKHALLEGRTKELGYTVKKHLQDACG
modifications: disulfide 1-67
In the case of B14, in assay [7], the Kd came out at 3.5 nM.

B15: Human RAP (ligand)
chain: YSREKNQPKPSPKRESGEEFRMEKLNQLWEKAQRLHLPPVRLAELHADLKIQERDELAWKKLKLDGLDEDGEKEARLIRNLNVILAKYGLDGKKDARQVTSNSLSGTQEDGLDDPRLEKLWHKAKTSGKFSGEELDKLWREFLHHKEKVHEYNVLLETLSRTEEIHENVISPSDLSDIKGSVLHSRHTELKEKLRSINQGLDRLRRVSHQGYSTEAEFEEPRVIDLWDLAQSANLTDKELEAFREELKHFEAKIEKHNHYQKQLEIAHEKLRHAESVGDGERVSRSREKHALLEGRTKELGYTVKKHLQDLSGRISRARHNEL
Regarding B15, in assay [9], the EC50 came out at 0.5 nM and the fold better EC50 than monomeric mRAPc peptide amounted to 64 fold. Besides, in assay [10], the EC50 is 0.3 nM.

B16: tag-free RAP d3 peptide linked to maleimide-PEO2-biotin (ligand)
chain: LDRLRRVSHQGYSTEAEFEEPRVIDLWDLAQSANLTDKELEAFREELKHFEAKIEKHNHYQKQLEIAHEKLRHAESVGDGERVSRSREKHALLEGRTKELGYTVKKHLQDLSGRISRARC
modifications: maleimide-PEO2-biotin on the unique C-terminal cysteine
For B16, the dissociation constant Kd in assay [11] was 8 nM.
